The test concerns the target T1, 6His-She1 C-terminal fragment (residues 194-338) (S. cerevisiae, UniProt P38200 194-338).
T1 sequence (looked up): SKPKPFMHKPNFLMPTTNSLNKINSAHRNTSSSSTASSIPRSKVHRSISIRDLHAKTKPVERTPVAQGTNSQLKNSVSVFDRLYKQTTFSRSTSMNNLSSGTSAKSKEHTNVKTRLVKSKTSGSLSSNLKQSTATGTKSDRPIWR
Description: pull-down.

B1: peptide encompassing the C-terminus of Tub1 (amino acids 415-447), wild type (peptide)
peptide: not shown
As to B1, the binding result is on record as “binds”.

Values taken from PMC8684761 (Molecular Biology of the Cell, 2021).
